Results published in article PMC3717276, “Optimization and validation of mitochondria-based functional assay as a useful tool to identify BH3-like molecules selectively targeting anti-apoptotic Bcl-2 proteins” (BMC Biotechnology, 2013).

Key:
[1] = target: Human Bcl-2 protein (isoform 2 construct), N-terminal 6xHis tagged recombinant protein (human); assay: fluorescence polarisation; competition: Mcl-1 (20 nM) or Bcl-2 (40 nM) pre-incubated with FAM-Bid (2 nM and 2.5 nM), tested BH3 peptide added, 2-3 h; 100 mM potassium phosphate, pH 7.5, 100 ug/ml bovine gamma globulin, 0.02% sodium azide; Ki calculated from IC50
[2] = target: Human Bcl-2 protein (isoform 2 construct), N-terminal 6xHis tagged recombinant protein (human); assay: SPR; competitive solution binding: protein (20 nM) pre-incubated with tested BH3 peptide for at least 30 min, injected over immobilised biotin-Bim BH3 peptide; response at 30 s of dissociation

Work on NLWAAQRYGRELRRMSDEFVDSFKKG [Bad BH3 peptide (residues 103-128)] yielded a Ki [1] of 7.1 nM and an IC50 [2] of 4.37 nM.

In the case of PAELEVECATQLRRFGDKLNFRQKLL [Noxa BH3 peptide (residues 18-43)], the Ki [1] is reported as greater than 10000 nM and the IC50 [2] is reported as greater than 30000 nM.
